Source: patent US7985404B1, “Reducing hair growth, hair follicle and hair shaft size and hair pigmentation” (Johnson & Johnson Consumer Companies, Inc., priority 1999, dated 2011)

B1: BBI: soybean-derived serine protease inhibitor protein from Sigma-Aldrich, used in PBS-liposome vehicle (protein, UniProt P01055 40-110, looked up)
Bowman-Birk type proteinase …: DDESSKPCCDQCACTKSNPPQCRCSDMRLNSCHSACKSCICALSYPAQCFCVDITDFCYEPCKPSEDDKEN
B2: STI: soybean-derived serine protease inhibitor protein from Sigma-Aldrich, used in PBS-liposome vehicle (protein, UniProt P01070 25-205, looked up)
Trypsin inhibitor A: DFVLDNEGNPLENGGTYYILSDITAFGGIRAAPTGNERCPLTVVQSRNELDKGIGTIISSPYRIRFIAEGHPLSLKFDSFAVIMLCVGIPTEWSVVEDLPEGPAVKIGENKDAMDGWFRLERVSDDEFNNYKLVFCPQQAEDDKCGDIGISIDHDDGTRRLVVSKNKPLVVQFQKLDKESL

Assays:
C57Bl/6 mice = test: Depilation-induced hair cycle in C57Bl/6 mice, daily topical treatment; format: in vivo, mouse; conditions: day eight of the hair cycle (FIG. 10), PBS-liposome vehicle
From the text: (§1) C57BI/6 or C3H mice (male and female) were obtained from Charles River (Kingston, NY), at 8-10 weeks of age and were in the resting (telogen) phase of their respective hair cycle. Hair growth was induced by wax depilation (plucking) of each respective animal's back fur according to the procedure set forth in Stenn, et al., “Glucocorticoid Effect on Hair Growth Initiation: A Reconsideration,” 6 Skin Pharmacol., 125-134 (1993). In C57Bl/6 and C3H mice, 8-10 weeks old, the growth phase (anagen) starts synchronously in all hair follicles at the time of depilation.
Since the murine hair cycle varies not only between strains, but also amongst individual animals, the status of the hair cycle was analyzed in each animal on study. A 2 cm by 1 cm skin sample was isolated from each mouse with scissors, fixed with a 10% buffered formalin solution having a pH of about 6.9-7.1 at 25° C. (Stephens Scientific), and then formed into a paraffin block according to well-known procedures. The block was then microtomed, and sections were stained with H&E or Fontana-Mason stain. Sections were examined histologically in order to verify the phase of the hair cycle, the size of the hair follicle and hair shaft and the level of hair pigmentation, using procedures well known in the art. Hair length was assessed visually, and by using a low magnification (×8) dissecting microscope. […]

C3H mice = test: Depilation-induced hair cycle in C3H mice, daily topical treatment; format: in vivo, mouse; conditions: for hair follicle histology: 1%, day seven of the hair cycle; for hair follicle histology / effect on hair growth and pigmentation: PBS-liposome vehicle; for effect on hair growth and pigmentation: high concentrations; for hair growth, follicle and shaft size, visual observation throughout the hair cycle: in PBS-liposome vehicle (FIG. 9)
From the text: as §1
Since the murine hair cycle varies not only between strains, but also amongst individual animals, the status of the hair cycle was analyzed in each animal on study. A 2 cm by 1 cm skin sample was isolated from each mouse with scissors, fixed with a 10% buffered formalin solution having a pH of about 6.9-7.1 at 25° C. (Stephens Scientific), and then formed into a paraffin block according to well-known procedures. The block was then microtomed, and sections were stained with H&E or Fontana-Mason stain. Sections were examined histologically in order to verify the phase of the hair cycle, the size of the hair follicle and hair shaft and the level of hair pigmentation, using procedures well known in the art. Hair length was assessed visually, and by using a low magnification (×8) dissecting microscope.
In order to verify that the effect of soymilk on hair growth is not specific to C57Bl/6 mice, we repeated the experiment described in Example 4 using the brown haired (Agouti) C3H mice. The results of these experiments were similar both visually and histologically.

trypsin = test: Enzchek protease digestion fluorescent assay with trypsin; format: biochemical; conditions: 100 units of trypsin; increasing concentrations / serial dilutions
Experimental: In order to support the hypothesis that STI and BBI in soymilk are involved in the hair growth effects described above, we tested soymilk for its serine protease inhibitory activity. An enzymatic assay was performed using “Enzchek”, a protease digestion fluorescent test system made by Molecular Probes of Eugene, Oreg. Using 100 units of trypsin (from Sigma chemicals, St. Louis Mo.) the test system produced fluorescence reading of about 1100 units. This reaction was inhibited with increasing concentrations of STI, as expected from a known trypsin inhibitor.

Molecule | hair follicle histology (C57Bl/6 mice) | hair follicle histology (C3H mice) | effect on hair growth and pigmentation (C3H mice) | hair growth, follicle and shaft size, visual observation throughout the hair cycle (C3H mice) | inhibition of trypsin reaction (trypsin)
B1 | smaller and less pigmented follicles | reduce hair follicle and hair shaft size and hair shaft pigmentation | substantial | could delay hair growth and reduce hair follicle and hair shaft size | –
B2 | smaller and less pigmented follicles | reduce hair follicle and hair shaft size and hair shaft pigmentation | substantial | could delay hair growth and reduce hair follicle and hair shaft size | inhibited
